B1: mouse MUSK full-length extracellular region (E22 to T494), Avi-His6, biotinylated (domain or fragment)
chain: EKLPKAPVITTPLETVDALVEEVATFMCAVESYPQPEISWTRNKILIKLFDTRYSIRENGQLLTILSVEDSDDGIYCCIANNGVGGAVESCGALQVKMKPKITRPPINVKIIEGLKAVLPCTTMGNPKPSVSWIKGDNALRENSRIAVLESGSLRIHNVQKEDAGQYRCVAKNSLGTAYSKLVKLEVEVFARILRAPESHNVTFGSFVTLRCTAIGIPVPTISWIENGNAVSSGSIQESVKDRVIDSRLQLFITKPGLYTCIATNKHGEKFSTAKAAATVSIAEWSKSQKDSQGYCAQYRGEVCDAVLAKDALVFFNTSYRDPEDAQELLIHTAWNELKAVSPLCRPAAEALLCNHLFQECSPGVVPTPMPICREYCLAVKELFCAKEWQAMEGKAHRGLYRSGMHLLPVPECSKLPSMHRDPTACTRLPYLDYKKENITTFPSITSSRPSADIPNLPASTSSFAVSPAYSMT
modifications: biotin (on the Avi tag, BirA in vitro)
B2: human MUSK full-length extracellular region (E22 to T495), Avi-His6, biotinylated (domain or fragment)
chain: EKLPKAPVITTPLETVDALVEEVATFMCAVESYPQPEISWTRNKILIKLFDTRYSIRENGQLLTILSVEDSDDGIYCCTANNGVGGAVESCGALQVKMKPKITRPPINVKIIEGLKAVLPCTTMGNPKPSVSWIKGDSPLRENSRIAVLESGSLRIHNVQKEDAGQYRCVAKNSLGTAYSKVVKLEVEVFARILRAPESHNVTFGSFVTLHCTATGIPVPTITWIENGNAVSSGSIQESVKDRVIDSRLQLFITKPGLYTCIATNKHGEKFSTAKAAATISIAEWSKPQKDNKGYCAQYRGEVCNAVLAKDALVFLNTSYADPEEAQELLVHTAWNELKVVSPVCRPAAEALLCNHIFQECSPGVVPTPIPICREYCLAVKELFCAKEWLVMEEKTHRGLYRSEMHLLSVPECSKLPSMHWDPTACARLPHLDYNKENLKTFPPMTSSKPSVDIPNLPSSSSSSFSVSPTYSMT
modifications: biotin (on the Avi tag, BirA in vitro)
B4: human MUSK Fz domain and C-terminal flanking sequence (K314 to T495), Avi-His6, biotinylated (domain or fragment)
chain: KGYCAQYRGEVCNAVLAKDALVFLNTSYADPEEAQELLVHTAWNELKVVSPVCRPAAEALLCNHIFQECSPGVVPTPIPICREYCLAVKELFCAKEWLVMEEKTHRGLYRSEMHLLSVPECSKLPSMHWDPTACARLPHLDYNKENLKTFPPMTSSKPSVDIPNLPSSSSSSFSVSPTYSMT
modifications: biotin (on the Avi tag, BirA in vitro)
B5: mouse MUSK Fz domain and C-terminal flanking sequence (D307 to T494), Avi-His6, biotinylated (domain or fragment)
chain: DSQGYCAQYRGEVCDAVLAKDALVFFNTSYRDPEDAQELLIHTAWNELKAVSPLCRPAAEALLCNHLFQECSPGVVPTPMPICREYCLAVKELFCAKEWQAMEGKAHRGLYRSGMHLLPVPECSKLPSMHRDPTACTRLPYLDYKKENITTFPSITSSRPSADIPNLPASTSSFAVSPAYSMT
modifications: biotin (on the Avi tag, BirA in vitro)

Common to all, as to assay: FACS
(In general: Flow cytometry measures light scatter and fluorescence of single cells or particles in a stream.)

In test [1] the target is X3 mIgG.
Test [2] concerns the target X2 hIgG.
Test [3] has as its target X3 hIgG.
Test [4] addresses X17 hIgG.
Test [5] addresses B1.
For test [6], the target named is B4.
The target in test [7] is B2.
In test [8] the target is B5.

Data on 5 molecules can be found in paper PMC8277574 (2021).

By Kd is commonly meant the equilibrium constant for the complex coming apart. Lower therefore signals higher affinity.

Consider B1, for which the equilibrium dissociation constant (Kd) in test [1] amounted to 0.118 nM; in test [2] it was 0.307 nM; in test [3] it was 0.079 nM; in test [4] it was 1.04 nM.

Take B2: the Kd in test [1] was 0.113 nM; in test [2] it was 0.478 nM; in test [3], 0.074 nM; in test [4], 0.86 nM.

B3: MUSK agonist antibody X17, mouse IgG2a-LALAPG format (antibody, V domains shown)
VH: EVQLVESGGGLVQPGGSLRLSCAASGFTISYSSIHWVRQAPGKGLEWVASIYSSSGSTYYADSVKGRFTISADTSKNTAYLQMNSLRAEDTAVYYCARGDHGYYVFGYLGMDYWGQGTLVTVSS
VL: DIQMTQSPSSLSASVGDRVTITCRASQSVSSAVAWYQQKPGKAPKLLIYSASSLYSGVPSRFSGSRSGTDFTLTISSLQPEDFATYYCQQSYKPGALITFGQGTKVEIK
In the case of B3, the Kd in test [5] is 1.1 nM; in test [6], 0.61 nM; in test [7], 0.97 nM; in test [8], 0.74 nM.

Consider B4, for which the Kd in test [1] came out at 0.079 nM; in test [2], 0.421 nM; in test [3] it was 0.057 nM; in test [4], 0.56 nM.

Turning to B5, the Kd in test [1] was 0.096 nM; in test [2], 0.265 nM; in test [3], 0.07 nM; in test [4] it was 0.68 nM.
